Assay results published in the supplement of paper PMC9170038.

Tests used:
MS2 coat protein [1] = test: apparent KD of MS2 coat protein, switch ON state; designed switch direction (-1 OFF switch, 1 ON switch): -1; higher = weaker reporter binding; settings: FMN input: 0 or 200 uM; Eterna round: R93 (includes R88 designs)
In short: (§1)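 Binding of SNAP-549-labelled MS2 coat protein was measured on designed RNA switches transcribed on-chip from Illumina sequencing clusters. The protein rose in twofold steps from 0.7 or 1.5 nM to 3 µM, with 0.8–1.5 h per step early on and 10–20 min per step later, in 100 mM Tris-HCl pH 7.5, 80 mM KCl, 4 mM MgCl2, without or with constant ligand. Each design's apparent KD is the median of fits to its normalised cluster binding curves.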

MS2 coat protein [2] = test: apparent KD of MS2 coat protein, switch OFF state (with FMN for OFF switches, without FMN for ON switches); designed switch direction (-1 OFF switch, 1 ON switch): -1; higher = weaker reporter binding; settings: FMN input: 0 or 200 uM; Eterna round: R93 (includes R88 designs)
In short: as §1

MS2 coat protein [3] = test: apparent KD of MS2 coat protein; designed switch direction (-1 OFF switch, 1 ON switch): 1; higher = weaker reporter binding
In short: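 Three titration conditions were used: no input, 200 uM small-molecule ligand, and an oligonucleotide input. In each, SNAP-549-labelled MS2 coat protein was raised from 0.7 or 1.5 nM, doubling, to 3 µM over designed RNA switches transcribed on Illumina chips by stalled E. coli RNA polymerase. Curve fits of normalised cluster fluorescence gave values whose per-design median over clusters is the apparent KD.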

[4] = Eterna round: R95, input ligand: FMN 200 uM
[5] = Eterna round: R95, input ligand: microRNA oligo, concentration not stated
[6] = Eterna round: R95, input ligand: none
[7] = input ligand: microRNA oligo, concentration not stated

Sequence | apparent KD of MS2 coat protein (MS2 coat protein [1]) [nM] | apparent KD of MS2 coat protein (MS2 coat protein [2]) [nM] | further results
AACAGUACAGGAUAUACAUGAGGAUCACCCAUGUGAAGAUUAAGUGGUGUACCACAAAGUAGAAGGGUACUGGA [Ruby 90] | 54.9 | 77.9 | 
AAAAAGUCAGGAUAUGUCAAAGGUCACGAAAGUGACAAAGGACAGAAGGGACAUGAGGAUCACCCAUGUAGGAA [Fiskers Exclusion 4D1 65% - Late G segment 2] | 55.5 | 68.5 | 
UAAAAGUGAGGAUAUGUCAAAAGUCACAAAAGUGACAAAAGACAGAAGGCACAUGAGGAUCACCCAUGUGAAAU [Mat - Exaclusion 4 - Eli mod - D56] | 23.3 | 32.2 | 
AGCUAGUCAGGAUAUACAUAAAAAAAAAAAAAAAGUGAUAAACAUGAGGAUCACCCAUGUAGAAGGGACUAGCA [Similarities v.4.2 (34 mutated to A)] | 29 | 48.3 | 
AAAAAGUGAGGAUAUAUAUGAAACAAAAAGAAAAAAAAAAAACAUGAGGAUCACCCAUGUAGAAGGCGCAAAAA ['Exclusion 2' Lab] | 27.1 | 21.5 | 
GGUUGGCAAGGAUAUACAUGAGGAUCACCCAUGUGAGAGAAAAAAGUGAGAAAGAAAAGUAGAAGGUGUUGACG [salish99-ex3-75] | 26.8 | 53 | 
CUCAUGUCAGGAUAUCAGUAGUAAAAAAAAAAAAUUACUACUGAGAAGGGACAUGAGGAUCACCCAUGUCCCAA [EX4 305: Super Stable 5] | 30.7 | 36.3 | 
AACUAGUGAGGAUAUACAAGAAAACAAACAAAAAUGAAGGGACAUGAGGAUCACCCAUGUAGAAGGCACUAACA [Diamond 70] | 48.2 | 100 | 
AACAGGACAGGAUAUACAUGAGGAUCACCCAUGUGAGAAUUUAGCAGCGUACCACACAGUAGAAGGGUCAUGGA [Ruby 23] | 40.8 | 48.6 | 
CUCAUGUUAGGAUAUUUAUGAAAUGAAGUGAAAGAAAAGAAAAAGAAGGAACAUGAGGAUCACCCAUGUUAGAA [EteRNA is fun!] | 65.2 | 35.4 | 
AAGAAGUGAGGAUAUCGAAGACAGACGAAAAGUCUGUCAAGCGAGAAGGCACAUGAGGAUCACCCAUGUGGAAG [Mat - Exaclusion 4 - Eli mod - D80] | 31.8 | 33.4 | 
AAGAAACAUGAGGAUCACCCAUGUGAGGAUAUGGAAAAGAAAAGAAAAGAAAGAAGAAUCAGAAGGCACAAAGG [Meryhathor] | 46.4 | 26.9 | 
GAAACACAUGAGGAUCACCCAUGUCAGGAUAUGUAGAUAAAAAGAAAAUAAAAUAAAAGCAGAAGGGACAAAAG [Mat - Same state - Mayanna Mod - D104] | 30.2 | 29.4 | 
GAAAGGGCAGGAUAUGCAGAGAGAGAGAGAGAAAAAAAAAAACAUGAGGAUCACCCAUGUAGAAGGGCCGAAAG [salish99-ex2-05] | 42.4 | 32.2 | 
AACUAACAUGAGGAUCACCCAUGUCAGGAUAUGCAUCGAUCGAUCGAUCGAUCGAUCAGCAGAAGGGACAAAAA [Amethyst 92] | 22.3 | 37 | 
AAAAAUGGAGGAUAUACAUGAGGAUCACCCAUGUGUGGCCAUACUAUGUGGGCGUCAGGUAGAAGGCCAAAAAA [Gilly Gone Silly 24 - Jieux - Exclusion 3] | 22.3 | 56 | 
AAGAAGCGAGGAUAUACAAAAUAAAAGAAAAGAAAGAAAGAACAUGAGGAUCACCCAUGUAGAAGGUGCAAGAA [Sehetepkare Intef IV] | 46.7 | 43.5 | 
AAAAAACAUGAGGAUCACCCAUGUGAGGAUAUGCAGCGAAUAAAGAAAGAAGAAAGCAGCAGAAGGCACACCAA [Amethyst 78] | 26.4 | 44.1 | 
GAAAAGUGAGGAUAUGUCAAAAGUCACAAAAGUGACAAAAGACAGAAGGCACAUGAGGAUCACCCAUGUGAAAA [Mat - Exaclusion 4 - Eli mod - D55] | 24.2 | 43.8 | 
AAGAACAGAGGAUAUACAUGAGGAUCACCCAUGUAAAAGAAAGAAGGGAAAGAGAAAAGUAGAAGGCUGAAGAA [Titaru] | 25 | 31.7 | 

Sequence | apparent KD of MS2 coat protein (MS2 coat protein [1]) [nM] | apparent KD of MS2 coat protein (MS2 coat protein [2]) [nM] | further results
GCUCAGUAAGGAUAUUAAUGGCGCUGUUAUUCAGCACCAGCUGAGAAGGUACAUGAGGAUCACCCAUGUGGUGA [Berion] | 240 | 216 | 
AGGAAACAUGAGGAUCACCCAUGUUAGGAUAUGAACGAAAUAAAAUAAAAAUAAAAGUUCAGAAGGAACAAAAA [Mat - Exclusion 1 - Eli mod - D19] | 28.2 | 41.3 | 
ACAAACCUAGGAUAUACAUGAGGAUCACCCAUGUACAAAGGCGUAGGCGACAAAAGAGGUAGAAGGAGGAAAGG [Disoed] | 21.9 | 22.9 | 
GUUAUGUGAGGAUAUAUGUAGGAAACUACAUUAAGGGUAUCACAUGAGGAUCACCCAUGUAGAAGGCGCGUAGC [Ex2Try2_Neo] | 283 | 256 | 
AAGAAUCAAGGAUAUACAAGGAAGAAAGAAAAGAAAAGAAAACAUGAGGAUCACCCAUGUAGAAGGUGAUAGAA [EteRNA is fun!] | 327 | 846 | 
AAAAAACAUGAGGAUCACCCAUGUGAGGAUAUGUACGAAAUAAAAUAAAAAUAAAAGUACAGAAGGCACAAAAA [Mat - Exclusion 1 - Eli mod - D4] | 40.2 | 46.6 | 
ACAGUUACAGGAUAUACAUAGGAAAAAAAAAAAAAAAUUCAACAUGAGGAUCACCCAUGUAGAAGGGUAACUGA [Ex2 Design 173: Random 2B] | 93.3 | 144 | 
CAGUACUGAGGAUAUACAUGAGGAUCACCCAUGUGUUAAAGCUAGGAAACUAGCAAAUGUAGAAGGCAGUACUG [Ex3: 817] | 14 | 47.9 | 
AGGGAGUAAGGAUAUCGGAAAGGACACGAAAGUGACAAAGACGAGAAGGUACAUGAGGAUCACCCAUGUAAAAA [milkweed 24] | 32.2 | 21.6 | 
AAAAAACAUGAGGAUCACCCAUGUAAGGAUAUCCAAAAGAAAAGAAAAGAAAGAAGAAGGAGAAGGUACAAGAA [Sahure] | 41.1 | 32.4 | 
GAAAAUUGAGGAUAUACGAACAUGUCAAAAGACGUGAAGGGACAUGAGGAUCACCCAUGUAGAAGGCGAAAAAG [Mat - Exclusion 2 - JL mod - D93] | 32 | 12.3 | 
AAAAAACAUGAGGAUCACCCAUGUGAGGAUAUCCUAAAAAAAAAAAAAAAAAAAAAAAGGAGAAGGCACAUAAA [EXCLS-II] | 47.6 | 64.8 | 
GGUUGAGAAGGAUAUACAUGAGGAUCACCCAUGUGAGAGAAAAAAGUGAGAAAGAAAAGUAGAAGGUCUUGACG [salish99-ex3-63] | 29 | 95.9 | 
AGGGAACAUGAGGAUCACCCAUGUGAGGAUAUAGAAAAGAAAAGAAAAGAAAGAAGAACUAGAAGGUACAAGAA [Merenre Nemtyemsaf I] | 26.1 | 30 | 
AUGUACCUAGGAUAUACAUGAGGAUCACCCAUGUAUUGGGAGCAAUCAAGUUAAUAUUGUAGAAGGAGGUGAAA [JR_Exc003_Sub316] | 25.7 | 67.9 | 
AGCAAACAUGAGGAUCACCCAUGUCAGGAUAUGAACGAAAUAAAUAAAAAAUAAAAGUUCAGAAGGGACGAGCA [Mat - Exclusion 1 - Eli mod - D25] | 32.4 | 42.9 | 
AGUCCAGCCUGAGCUGGACAAAAGCAUGUACAUGAGGAUCACCCAUGUCAUGUGCAAGCUUUUUGCUCGUCUUAAUA [Zipper 49 - 5] (puzzle: Sensor for hsa-mir-208a) |  |  | apparent KD of MS2 coat protein (MS2 coat protein [3]; [4]): 64.5 nM; apparent KD of MS2 coat protein (MS2 coat protein [3]; [5]): 11.9 nM; apparent KD of MS2 coat protein (MS2 coat protein [3]; [6]): 70.3 nM
GAGAGAGGAAGCGAGGAUAUCGUGUUGGGUACAUGAGGAUCACCCAUGUUGUAGGUAGAGGUAGGCGAGAAGGCGCAGGAGAGGU [JR_SS2_Sub096] (puzzle: Same State 2) |  |  | apparent KD of MS2 coat protein (MS2 coat protein [3]; [4]): 105 nM; apparent KD of MS2 coat protein (MS2 coat protein [3]; [5]): 67 nM; apparent KD of MS2 coat protein (MS2 coat protein [3]; [6]): 195 nM
GGAGCCAGCACCGAGGAUAUUCAUAUUAAAACAUGAGGAUCACCCAUGUAGGCCAGAAGGCCUUGGGAGAAGGCGGACUGGCUCG [Xeonanis - 11] (Eterna round: R96, puzzle: Same State 2) |  |  | apparent KD of MS2 coat protein (MS2 coat protein [3]; input ligand: FMN 200 uM): 18.8 nM; apparent KD of MS2 coat protein (MS2 coat protein [3]; [7]): 212 nM; apparent KD of MS2 coat protein (MS2 coat protein [3]; input ligand: none): 364 nM
CUGAGGAAGAGAGAGGAUAUCCAAAGGAAAACAUGAGGAUCACCCAUGUAAAAGGUAGGAAAUUGGGAGAAGGCUCAAGAGAGAG [salish99-ss2-068] (Eterna round: R96, puzzle: Same State 2) |  |  | apparent KD of MS2 coat protein (MS2 coat protein [3]; input ligand: FMN 200 uM): 32.3 nM; apparent KD of MS2 coat protein (MS2 coat protein [3]; [7]): 38.3 nM; apparent KD of MS2 coat protein (MS2 coat protein [3]; input ligand: none): 39.3 nM
